Measurements taken from paper PMC11257983 (2024).

Experiments:
[1] = biological target: CNK^CRIC Q84E (Flag-CNK^2–549 assumed); experiment: GST pull-down, immunoblot quantification; details: S2 cells, Flag-CNK2–549, V5-KSR, Myc-MEK, GST-HYP co-expressed, captured via GST-HYP, parent: 1.00
[2] = biological target: endogenous CNK (anti-CNK blot, no CNK construct transfected); experiment: anti-V5 immunoprecipitation, immunoblot quantification; details: S2 cells; V5-KSR and Myc-MEK co-expressed; anti-CNK blot (band near 180 kDa); parent: 1.00
[3] = biological target: CNK^SAM Y76R (Flag-CNK^2–549 assumed); experiment: GST pull-down, immunoblot quantification; details: S2 cells, Flag-CNK2–549, V5-KSR, Myc-MEK, GST-HYP co-expressed, captured via GST-HYP, parent: 1.00
Flag-CNK^2–549 = Flag-CNK^2–549 (UniProt Q7KNQ9); experiment: GST pull-down, immunoblot quantification; details: S2 cells, Flag-CNK2–549, V5-KSR, Myc-MEK, GST-HYP co-expressed, captured via GST-HYP, parent: 1.00
[4] = biological target: CNK^SAM R46F (Flag-CNK^2–549 assumed); experiment: GST pull-down, immunoblot quantification; details: S2 cells, Flag-CNK2–549, V5-KSR, Myc-MEK, GST-HYP co-expressed, captured via GST-HYP, parent: 1.00
[5] = biological target: CNK^CRIC N96E (Flag-CNK^2–549 assumed); experiment: GST pull-down, immunoblot quantification; details: S2 cells, Flag-CNK2–549, V5-KSR, Myc-MEK, GST-HYP co-expressed, captured via GST-HYP, parent: 1.00
V5-KSR R913E, Q24171 = biological target: T1, V5-KSR R913E, Q24171; experiment: anti-V5 immunoprecipitation, immunoblot quantification; details: chain shown with the change; S2 cells; V5-KSR and Myc-MEK co-expressed; anti-Myc (MEK) blot; parent: 1.00
T1 chain: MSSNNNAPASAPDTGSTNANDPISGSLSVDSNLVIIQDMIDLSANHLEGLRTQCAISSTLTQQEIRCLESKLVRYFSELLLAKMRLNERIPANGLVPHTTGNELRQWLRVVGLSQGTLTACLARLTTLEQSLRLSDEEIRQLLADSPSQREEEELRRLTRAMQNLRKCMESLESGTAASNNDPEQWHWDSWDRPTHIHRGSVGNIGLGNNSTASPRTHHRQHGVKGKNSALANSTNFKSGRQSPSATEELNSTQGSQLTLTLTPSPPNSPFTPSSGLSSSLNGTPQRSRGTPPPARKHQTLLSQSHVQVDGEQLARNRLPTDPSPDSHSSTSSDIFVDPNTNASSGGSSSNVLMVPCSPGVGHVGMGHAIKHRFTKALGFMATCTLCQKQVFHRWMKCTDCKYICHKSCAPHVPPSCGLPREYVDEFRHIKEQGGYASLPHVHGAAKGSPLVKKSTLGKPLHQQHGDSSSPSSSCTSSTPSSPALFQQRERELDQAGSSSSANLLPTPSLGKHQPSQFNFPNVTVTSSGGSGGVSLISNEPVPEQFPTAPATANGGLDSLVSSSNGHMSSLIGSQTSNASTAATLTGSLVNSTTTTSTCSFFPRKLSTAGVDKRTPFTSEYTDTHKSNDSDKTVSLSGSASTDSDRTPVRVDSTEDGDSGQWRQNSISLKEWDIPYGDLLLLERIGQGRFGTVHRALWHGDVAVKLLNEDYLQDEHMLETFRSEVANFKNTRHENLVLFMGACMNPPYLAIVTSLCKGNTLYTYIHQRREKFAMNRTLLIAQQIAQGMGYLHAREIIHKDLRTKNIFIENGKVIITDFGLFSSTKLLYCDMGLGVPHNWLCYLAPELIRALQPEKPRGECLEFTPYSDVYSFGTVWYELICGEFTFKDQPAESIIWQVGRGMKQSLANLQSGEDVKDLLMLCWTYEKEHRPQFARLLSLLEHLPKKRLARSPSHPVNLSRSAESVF

Flag-CNK^2–549, sequence (Q7KNQ9 entry or part of it): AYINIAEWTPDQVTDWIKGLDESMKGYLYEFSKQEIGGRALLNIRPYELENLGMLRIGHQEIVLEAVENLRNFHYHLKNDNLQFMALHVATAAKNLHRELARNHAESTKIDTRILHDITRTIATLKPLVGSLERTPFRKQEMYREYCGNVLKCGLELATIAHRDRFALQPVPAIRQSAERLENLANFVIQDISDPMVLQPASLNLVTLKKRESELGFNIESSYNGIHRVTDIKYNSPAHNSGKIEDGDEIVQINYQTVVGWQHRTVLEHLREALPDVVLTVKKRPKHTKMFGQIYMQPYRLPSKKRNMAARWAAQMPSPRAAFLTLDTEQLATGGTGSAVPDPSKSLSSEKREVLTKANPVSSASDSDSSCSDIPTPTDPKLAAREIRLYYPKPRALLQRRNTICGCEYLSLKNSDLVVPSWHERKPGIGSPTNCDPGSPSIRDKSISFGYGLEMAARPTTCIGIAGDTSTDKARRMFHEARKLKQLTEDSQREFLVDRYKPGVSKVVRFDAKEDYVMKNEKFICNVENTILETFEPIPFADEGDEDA

Molecule: m6; m8 MEK:E323R; CNK:Q84E
- ratio to parent ([1]; anti-Myc (MEK) blot): 0.02
- ratio to parent ([1]; anti-V5 (KSR) blot): 0.05

Molecule: V5-KSR (from UniProt Q24171) K903D
- ratio to parent [2]: 0.26

Molecule: V5-KSR (from UniProt Q24171) W896R
- ratio to parent [2]: 0.29

Molecule: m6; m8 MEK:E323R; CNK:Y76R
- ratio to parent ([3]; anti-Myc (MEK) blot): 0.06
- ratio to parent ([3]; anti-V5 (KSR) blot): 0.09

Molecule: m5; m6 KSR:R913E; MEK:E323R
- ratio to parent (Flag-CNK^2–549; anti-Myc (MEK) blot): 0.41
- ratio to parent (Flag-CNK^2–549; anti-V5 (KSR) blot): 0.41

Molecule: V5-KSR (from UniProt Q24171) Y925D
- ratio to parent [2]: 0.25

Molecule: V5-KSR (from UniProt Q24171) E926R
- ratio to parent [2]: 1.12

Molecule: V5-KSR (from UniProt Q24171) M902D
- ratio to parent [2]: 0.13

Molecule: m6; m8 MEK:E323R; CNK:R46F
- ratio to parent ([4]; anti-Myc (MEK) blot): 0.2
- ratio to parent ([4]; anti-V5 (KSR) blot): 0.23

Molecule: m6; m8 MEK:E323R; CNK:N96E
- ratio to parent ([5]; anti-Myc (MEK) blot): 0.22
- ratio to parent ([5]; anti-V5 (KSR) blot): 0.27

Molecule: m5; m8 KSR:R913E; CNK:Q84E
- ratio to parent ([1]; anti-Myc (MEK) blot): 0.1
- ratio to parent ([1]; anti-V5 (KSR) blot): 0.13

B1: m6; m5 MEK:E323R; KSR:R913E (protein)
chain: MSKNKLNLVLPPVNTEATVAAATVAPTPPFKTPSGTDTHSLLGKPKTSIDALTETLEGLDMGDTERKRIKMFLSQKEKIGELSDEDLEKLGELGSGNGGVVMKVRHTHTHLIMARKLIHLEVKPAIKKQILRELKVLHECNFPHIVGFYGAFYSDGEISICMEYMDGGSLDLILKRAGRIPESILGRITLAVLKGLSYLRDNHAIIHRDVKPSNILVNSSGEIKICDFGVSGQLIDSMANSFVGTRSYMSPERLQGTHYSVQSDIWSLGLSLVEMAIGMYPIPPPNTATLESIFADNAEESGQPTDEPRAMAIFELLDYIVNRPPPKLEHKIFSTEFKDFVDICLKKQPDERADLKTLLSHPWIRKAELEEVDISGWVCKTMDLPPSTPKRNTSPN
- ratio to parent (V5-KSR R913E, Q24171): 1.01
